Laboratory results taken from article PMC2111966.

Target: Acanthamoeba actin (Acanthamoeba)
Assay: co-sedimentation

- percent of soluble G-actin converted into an insoluble form: > 95%
Substance: Acanthamoeba actin (natural protein)
